Values joined by “and” are separate entries in the source; they are usually repeats but may differ in a detail not shown here. Equal entries are not always repeated. Where two headings read alike, the source gives them in different places.
How the values were obtained:
Experiment in all cases: cryo-EM structure
[1] = target: Danio rerio calcium homeostasis modulator 1 (drCALHM1) (Danio rerio) (UniProt E7F2J4)
[2] = target: Danio rerio calcium homeostasis modulator 1 (drCALHM1) (Danio rerio) (UniProt E7F2J4); remark: listed apart in the source
[3] = target: Danio rerio calcium homeostasis modulator 1 (drCALHM1) (Danio rerio) (UniProt E7F2J4); remark: listed apart in the source

stoichiometry N [1]: 8
stoichiometry N [2]: 7
stoichiometry N [3]: 7 and 8
Substance: Danio rerio calcium homeostasis modulator 1 (drCALHM1) (from UniProt E7F2J4 1-346) (natural protein)

Source: PMC9035704
